Laboratory results as given in patent US20260207704A1, “STAPLED PEPTIDES AND METHODS THEREOF” (priority 2022, published 2026).
*1 amine or outer side, *2 acyl side, *3 side chain or, on linkers, in order; H or OH if unused. Bridges are numbered along the chain shown (N, C = ends). Primed or numbered codes have the meaning given here. [ ]: non-standard residue; d: D form. PyrS2(6) = (S)-3-amino-1-((pent-4-en-1-yloxy)carbonyl)pyrrolidine-3-carboxylic acid, stapled with another olefin-containing amino acid residue through the olefin group, O=C(OCCCC=[*:3])N1CC[C@@](N[*:1])(C(=O)[*:2])C1; B5(4) = 2-amino-2-(pent-4-en-1-yl)hept-6-enoic acid, stapled through each of its two olefin groups with other olefin-containing amino acid residues, O=C(C(CCCC=[*:3])(CCCC=[*:4])N[*:1])[*:2]; PyrS2″ = (S)-3-amino-1-((pent-4-en-1-yloxy)carbonyl)pyrrolidine-3-carboxylic acid (olefin stapling residue), C=CCCCOC(=O)N1CC[C@@](N[*:1])(C(=O)[*:2])C1; PyrS2 = (S)-3-amino-1-((pent-4-en-1-yloxy)carbonyl)pyrrolidine-3-carboxylic acid, olefin staple residue, C=CCCCOC(=O)N1CC[C@@](N[*:1])(C(=O)[*:2])C1; PyrS2(3) = (S)-3-amino-1-((pent-4-en-1-yloxy)carbonyl)pyrrolidine-3-carboxylic acid, olefin residue, C=CCCCOC(=O)N1CC[C@@](N[*:1])(C(=O)[*:2])C1; PyrS2(5) = (S)-3-amino-1-((pent-4-en-1-yloxy)carbonyl)pyrrolidine-3-carboxylic acid, C=CCCCOC(=O)N1CC[C@@](N[*:1])(C(=O)[*:2])C1; B5(5) = 2-amino-2-(pent-4-en-1-yl)hept-6-enoic acid (two olefin arms), C=CCCCC(CCCC=C)(N[*:1])C(=O)[*:2]; B5(3) = 2-amino-2-(pent-4-en-1-yl)hept-6-enoic acid, two olefin arms, C=CCCCC(CCCC=C)(N[*:1])C(=O)[*:2]; TriAzLys″ = azidolysine residue closed into triazole staple, O=C([C@H](CCCCn1cc([*:3])nn1)N[*:1])[*:2]; 2F3MeF″ = aromatic residue, Cc1cccc(C[C@H](N[*:1])C(=O)[*:2])c1F; Phe(3-COOH) = N[C@@H](Cc1cccc(C(=O)O)c1)C(=O)O; Bta = N[C@@H](Cc1csc2ccccc12)C(=O)O; αAllylPro = C=CC[C@@]1(C(=O)O)CCCN1; tBuAla = CC(C)(C)C[C@H](N)C(=O)O; 3Thi = N[C@@H](Cc1ccsc1)C(=O)O; TriAzLys(3) = not defined here; 2F3MeF(4) = Phe analogue; Orn = NCCC[C@H](N)C(=O)O; AsnR = not defined here; GlnR = not defined here; sAla = not defined here; PL3 = not defined here; B5 = not defined here; Aib = CC(C)(N)C(=O)O

B1: I-66 (peptide)
peptide: Ac-[αAllylPro]D[tBuAla][B5]D[Phe(3-COOH)][Aib]AFK[PyrS2][3Thi][Bta][GlnR]A-NH2
modifications: staple 1-4, 4-11; lactam 10-14; not fully specified; printed as Ac-PL3-Asp-Npg-B5-Asp-3COOHF-Aib-Ala-Phe-Lys*3-PyrS2-3Thi-BztA-GlnR*3-Ala-NH2; reading uncertain
B2: I-43 (peptide)
peptide: Ac-[αAllylPro]D[tBuAla][B5(5)]D[Phe(3-COOH)]AAF[GlnR][PyrS2(5)][3Thi][Bta]KA-NH2
modifications: bridge 10-14; reading uncertain; also: PL3/B5/PyrS2 staple links not placed, printed as Ac-PL3-Asp-Npg-B5-Asp-3COOHF-Ala-Ala-Phe-GlnR*3-PyrS2-3Thi-BztA-Lys*3-Ala-NH2
B3: I-25 (peptide)
peptide: Ac-[αAllylPro]D[tBuAla][B5(4)]D[Phe(3-COOH)]AAF[sAla][PyrS2(6)][2F3MeF(4)][Bta][TriAzLys(3)]-NH2
modifications: triazole 10-14; not fully specified (bridges); printed as Ac-PL3-Asp-Npg-B5-Asp-3COOHF-Ala-Ala-Phe-sAla*3-PyrS2-2F3MeF-BztA-TriAzLys*3-NH2; reading uncertain
B4: I-30 (peptide)
peptide: Ac-[αAllylPro]D[tBuAla][B5(4)]D[Phe(3-COOH)][TriAzLys(3)]AF[sAla][PyrS2(6)][3Thi][Bta]Q-NH2
modifications: triazole 7-10; not fully specified (bridges); printed as Ac-PL3-Asp-Npg-B5-Asp-3COOHF-TriAzLys*3-Ala-Phe-sAla*3-PyrS2-3Thi-BztA-Gln-NH2; reading uncertain
B5: I-29 (peptide)
peptide: Ac-[αAllylPro]D[tBuAla][B5(4)]DD[TriAzLys(3)]AF[sAla][PyrS2(6)][3Thi][Bta]Q-NH2
modifications: triazole 7-10; not fully specified (bridges); printed as Ac-PL3-Asp-Npg-B5-Asp-Asp-TriAzLys*3-Ala-Phe-sAla*3-PyrS2-3Thi-BztA-Gln-NH2; reading uncertain
B6: I-31 (peptide)
peptide: Ac-[αAllylPro]D[tBuAla][B5(4)]D[Phe(3-COOH)][TriAzLys(3)]AF[sAla][PyrS2(6)][2F3MeF(4)][Bta]Q-NH2
modifications: triazole 7-10; not fully specified (bridges); printed as Ac-PL3-Asp-Npg-B5-Asp-3COOHF-TriAzLys*3-Ala-Phe-sAla*3-PyrS2-2F3MeF-BztA-Gln-NH2; reading uncertain
B7: I-42 (peptide)
peptide: Ac-[αAllylPro]D[tBuAla][B5(5)]D[Phe(3-COOH)]AAFK[PyrS2(5)][3Thi][Bta][GlnR]A-NH2
modifications: bridge 10-14; reading uncertain; also: PL3/B5/PyrS2 staple links not placed, printed as Ac-PL3-Asp-Npg-B5-Asp-3COOHF-Ala-Ala-Phe-Lys*3-PyrS2-3Thi-BztA-GlnR*3-Ala-NH2
B8: I-24 (peptide)
peptide: Ac-[αAllylPro]D[tBuAla][B5(4)]D[Phe(3-COOH)]AAF[sAla][PyrS2(6)][3Thi][Bta][TriAzLys(3)]-NH2
modifications: triazole 10-14; not fully specified (bridges); printed as Ac-PL3-Asp-Npg-B5-Asp-3COOHF-Ala-Ala-Phe-sAla*3-PyrS2-3Thi-BztA-TriAzLys*3-NH2; reading uncertain
B9: I-38 (peptide)
peptide: Ac-[αAllylPro]D[tBuAla][B5(5)]D[Phe(3-COOH)]AAF[GlnR][PyrS2(5)][3Thi][Bta][Orn]-NH2
modifications: bridge 10-14; not fully specified (bridges); printed as Ac-PL3-Asp-Npg-B5-Asp-3COOHF-Ala-Ala-Phe-GlnR*3-PyrS2-3Thi-BztA-Orn*3-NH2; reading uncertain
B10: I-55 (peptide)
peptide: Ac-[αAllylPro]D[tBuAla][B5(3)]D[Phe(3-COOH)]AAFK[PyrS2(3)][2F3MeF″][Bta][GlnR]-NH2
modifications: bridge 10-14; not fully specified (bridges); printed as Ac-PL3-Asp-Npg-B5-Asp-3COOHF-Ala-Ala-Phe-Lys*3-PyrS2-2F3MeF-BztA-GlnR*3-NH2; reading uncertain
B11: I-60 (peptide)
peptide: Ac-[αAllylPro]D[tBuAla][B5(3)]D[Phe(3-COOH)]QAFK[PyrS2(3)][2F3MeF″][Bta][GlnR]A-NH2
modifications: bridge 10-14; not fully specified (bridges); printed as Ac-PL3-Asp-Npg-B5-Asp-3COOHF-Gln-Ala-Phe-Lys*3-PyrS2-2F3MeF-BztA-GlnR*3-Ala-NH2; reading uncertain
B12: I-33 (peptide)
peptide: Ac-[αAllylPro]D[tBuAla][B5(4)]D[Phe(3-COOH)]AAF[GlnR][PyrS2(6)][3Thi][Bta]K-NH2
modifications: bridge 10-14; not fully specified (bridges); printed as Ac-PL3-Asp-Npg-B5-Asp-3COOHF-Ala-Ala-Phe-GlnR*3-PyrS2-3Thi-BztA-Lys*3-NH2; reading uncertain
B13: I-34 (peptide)
peptide: Ac-[αAllylPro]D[tBuAla][B5(5)]D[Phe(3-COOH)]AAFK[PyrS2(5)][3Thi][Bta][AsnR]-NH2
modifications: bridge 10-14; not fully specified (bridges); printed as Ac-PL3-Asp-Npg-B5-Asp-3COOHF-Ala-Ala-Phe-Lys*3-PyrS2-3Thi-BztA-AsnR*3-NH2; reading uncertain
B14: I-56 (peptide)
peptide: Ac-[αAllylPro]D[tBuAla][B5(3)]D[Phe(3-COOH)]AAFK[PyrS2(3)][2F3MeF″][Bta][AsnR]-NH2
modifications: bridge 10-14; not fully specified (bridges); printed as Ac-PL3-Asp-Npg-B5-Asp-3COOHF-Ala-Ala-Phe-Lys*3-PyrS2-2F3MeF-BztA-AsnR*3-NH2; reading uncertain
B15: I-37 (peptide)
peptide: Ac-[αAllylPro]D[tBuAla][B5(5)]D[Phe(3-COOH)]AAF[Orn][PyrS2(5)][3Thi][Bta][GlnR]-NH2
modifications: bridge 10-14; not fully specified (bridges); printed as Ac-PL3-Asp-Npg-B5-Asp-3COOHF-Ala-Ala-Phe-Orn*3-PyrS2-3Thi-BztA-GlnR*3-NH2; reading uncertain
B16: I-39 (peptide)
peptide: Ac-[αAllylPro]D[tBuAla][B5(5)]D[Phe(3-COOH)]AAF[Orn][PyrS2(5)][3Thi][Bta][AsnR]-NH2
modifications: bridge 10-14; not fully specified (bridges); printed as Ac-PL3-Asp-Npg-B5-Asp-3COOHF-Ala-Ala-Phe-Orn*3-PyrS2-3Thi-BztA-AsnR*3-NH2; reading uncertain
B17: I-23 (peptide)
peptide: Ac-[PL3]D[tBuAla][B5(4)]DDAAF[sAla][PyrS2″][3Thi][Bta][TriAzLys″]-NH2
modifications: triazole 10-14; not fully specified (bridges); printed as Ac-PL3-Asp-Npg-B5-Asp-Asp-Ala-Ala-Phe-sAla*3-PyrS2-3Thi-BztA-TriAzLys*3-NH2; reading uncertain
B18: I-32 (peptide)
peptide: Ac-[αAllylPro]D[tBuAla][B5(4)]D[Phe(3-COOH)]AAFK[PyrS2(6)][3Thi][Bta][GlnR]-NH2
modifications: bridge 10-14; not fully specified (bridges); printed as Ac-PL3-Asp-Npg-B5-Asp-3COOHF-Ala-Ala-Phe-Lys*3-PyrS2-3Thi-BztA-GlnR*3-NH2; reading uncertain
B19: I-57 (peptide)
peptide: Ac-[αAllylPro]D[tBuAla][B5(3)]D[Phe(3-COOH)]AAFK[PyrS2(3)][2F3MeF″][Bta][GlnR]A-NH2
modifications: bridge 10-14; not fully specified (bridges); printed as Ac-PL3-Asp-Npg-B5-Asp-3COOHF-Ala-Ala-Phe-Lys*3-PyrS2-2F3MeF-BztA-GlnR*3-Ala-NH2; reading uncertain

Experiments:
[1] = target: beta-catenin (human); assay: cell-based or functional assay
[2] = target: beta-catenin (human); assay: fluorescence polarization

beta-catenin (human), sequence (B6V8E6 146-665 limits assumed): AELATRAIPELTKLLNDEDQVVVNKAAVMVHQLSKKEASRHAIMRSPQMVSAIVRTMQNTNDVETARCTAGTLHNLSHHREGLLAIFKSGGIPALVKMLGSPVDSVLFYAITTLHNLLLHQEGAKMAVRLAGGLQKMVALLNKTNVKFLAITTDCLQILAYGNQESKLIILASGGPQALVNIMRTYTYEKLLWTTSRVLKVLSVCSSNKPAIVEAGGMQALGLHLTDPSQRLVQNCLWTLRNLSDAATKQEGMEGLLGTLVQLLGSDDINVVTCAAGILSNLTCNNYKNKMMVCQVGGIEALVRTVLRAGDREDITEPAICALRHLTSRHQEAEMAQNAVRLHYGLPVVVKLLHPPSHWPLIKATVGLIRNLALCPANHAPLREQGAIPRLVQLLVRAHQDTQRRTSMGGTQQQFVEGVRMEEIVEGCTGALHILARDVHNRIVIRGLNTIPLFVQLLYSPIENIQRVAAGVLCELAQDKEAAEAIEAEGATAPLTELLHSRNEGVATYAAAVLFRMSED

IC50 [2] [µM] | NanoBRET Abs IC50 (bin >3.0 uM) [1] [µM] | further results | Binder
< 0.05 | – | AXIN2 expression IC50, COLO320DM cells [1]: 0.3 µM; AXIN2 expression IC50, DLD1 cells [1]: 1.6 µM; SP5 expression IC50, DLD1 cells [1]: 1.3 µM | B1
< 0.05 | – | NanoBRET Abs IC50 (bin >1.5 uM) [1]: < 3 µM | B2
< 0.05 | < 10 | – | B3
< 0.05 | – | NanoBRET Abs IC50 [1]: > 10 µM | B4
< 0.05 | – | NanoBRET Abs IC50 [1]: > 10 µM | B5
< 0.05 | – | NanoBRET Abs IC50 [1]: > 10 µM | B6
< 0.05 | – | NanoBRET Abs IC50 (bin >1.5 uM) [1]: < 3 µM | B7
< 0.05 | < 10 | – | B8
< 0.05 | < 10 | – | B9
< 0.05 | – | NanoBRET Abs IC50 (bin >1.5 uM) [1]: < 3 µM | B10
< 0.05 | < 10 | – | B11
< 0.05 | < 10 | – | B12
< 0.05 | < 10 | – | B13
< 0.05 | < 10 | – | B14
< 0.05 | < 10 | – | B15
< 0.05 | – | NanoBRET Abs IC50 [1]: > 10 µM | B16
< 0.05 | < 10 | – | B17
< 0.05 | – | NanoBRET Abs IC50 [1]: < 1.5 µM | B18
< 0.05 | – | NanoBRET Abs IC50 (bin >1.5 uM) [1]: < 3 µM | B19
